Measured values reported in article PMC9482650, “Quantitative fragmentomics allow affinity mapping of interactomes” (Nature Communications, 2022).

T1: MPP7, Q5T2T1
T1 sequence (Q5T2T1 134-230, limits assumed, looked up): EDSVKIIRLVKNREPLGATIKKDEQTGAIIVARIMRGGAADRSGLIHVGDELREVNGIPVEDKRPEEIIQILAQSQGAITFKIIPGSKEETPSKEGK

T2: GRIP1_7, Q9Y3R0
T2 sequence (Q9Y3R0 999-1096, limits assumed, looked up): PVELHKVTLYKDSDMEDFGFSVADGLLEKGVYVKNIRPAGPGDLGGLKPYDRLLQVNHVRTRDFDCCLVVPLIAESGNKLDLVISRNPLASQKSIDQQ

T3: DVL3, Q92997
T3 sequence (Q92997 244-331, limits assumed, looked up): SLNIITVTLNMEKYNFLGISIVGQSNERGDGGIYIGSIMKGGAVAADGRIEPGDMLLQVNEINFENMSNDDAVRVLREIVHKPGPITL

T4: MPP2, Q14168
T4 sequence (Q14168 180-250, limits assumed, looked up): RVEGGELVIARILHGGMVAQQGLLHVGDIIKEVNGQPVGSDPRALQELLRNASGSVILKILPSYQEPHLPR

T5: APBA2_1, Q99767
T5 sequence (Q99767 563-664, limits assumed, looked up): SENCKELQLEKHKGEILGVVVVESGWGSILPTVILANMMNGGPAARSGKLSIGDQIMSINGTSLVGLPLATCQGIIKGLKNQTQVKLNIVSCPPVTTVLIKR

T6: LNX2_2, Q8N448
T6 sequence (Q8N448 334-432, limits assumed, looked up): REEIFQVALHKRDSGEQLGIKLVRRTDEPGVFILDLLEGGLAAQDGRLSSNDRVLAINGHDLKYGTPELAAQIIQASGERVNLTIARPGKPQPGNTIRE

T7: ARHGEF11, O15085
T7 sequence (O15085 42-136, limits assumed, looked up): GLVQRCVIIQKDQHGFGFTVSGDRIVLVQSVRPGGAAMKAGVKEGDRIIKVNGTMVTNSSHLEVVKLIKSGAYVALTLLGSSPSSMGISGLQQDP

T8: SNTG1, Q9NSN8
T8 sequence (Q9NSN8 52-150, limits assumed, looked up): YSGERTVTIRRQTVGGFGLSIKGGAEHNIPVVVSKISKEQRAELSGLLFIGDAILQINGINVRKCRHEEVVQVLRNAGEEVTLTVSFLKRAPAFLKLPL

T9: TIAM2, Q8IVF5
T9 sequence (Q8IVF5 885-986, limits assumed, looked up): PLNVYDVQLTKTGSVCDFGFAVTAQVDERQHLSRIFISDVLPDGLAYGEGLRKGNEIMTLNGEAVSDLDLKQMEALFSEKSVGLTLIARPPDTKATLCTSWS

T10: HTRA4, P83105
T10 sequence (P83105 378-476, limits assumed, looked up): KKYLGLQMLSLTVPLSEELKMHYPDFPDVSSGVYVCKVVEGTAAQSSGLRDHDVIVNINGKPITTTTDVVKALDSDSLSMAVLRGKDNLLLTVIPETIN

T11: NHERF3_3, Q5T2W1
T11 sequence (Q5T2W1 238-333, limits assumed, looked up): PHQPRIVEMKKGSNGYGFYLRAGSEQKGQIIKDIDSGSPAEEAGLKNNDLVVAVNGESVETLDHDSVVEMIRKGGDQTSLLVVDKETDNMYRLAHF

T12: APBA1_2, Q02410
T12 sequence (Q02410 742-832, limits assumed, looked up): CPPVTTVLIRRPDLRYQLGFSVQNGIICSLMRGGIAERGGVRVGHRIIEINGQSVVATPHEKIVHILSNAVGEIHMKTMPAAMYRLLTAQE

T13: MPDZ_12, O75970
T13 sequence (O75970 1857-1958, limits assumed, looked up): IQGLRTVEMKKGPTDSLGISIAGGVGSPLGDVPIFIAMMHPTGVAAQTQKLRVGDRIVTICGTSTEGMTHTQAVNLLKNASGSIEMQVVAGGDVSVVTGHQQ

T14: PDZD7_3, Q9H5P4
T14 sequence (Q9H5P4 857-944, limits assumed, looked up): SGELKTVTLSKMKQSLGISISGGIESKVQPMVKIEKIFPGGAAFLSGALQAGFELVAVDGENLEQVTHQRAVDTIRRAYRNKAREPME


What follows are binders tested against T1, MPP7, Q5T2T1 (assay: holdup assay). Conditions: plain residues with an end cap or a label only (N-terminal biotin on a linker: ado-ado).
Parameters: key: below the threshold = too weak to quantify, mostly under pKd 3.1 to 4

Binder	pKd
RRISSLESEV [GRIN2C, Q14957]	below the threshold
YNNCLEILRV [DCAF7, P61962]	below the threshold

The binders below were run against T2, GRIP1_7, Q9Y3R0 (assay: holdup assay). Conditions: plain residues with an end cap or a label only (N-terminal biotin on a linker: ado-ado).
Parameters: key: below the threshold = too weak to quantify, mostly under pKd 3.1 to 4

Binder	pKd
RRISSLESEV [GRIN2C, Q14957]	below the threshold
YNNCLEILRV [DCAF7, P61962]	below the threshold

What follows are binders tested against T3, DVL3, Q92997 (assay: holdup assay). Conditions: plain residues with an end cap or a label only (N-terminal biotin on a linker: ado-ado).
Parameters: key: below the threshold = too weak to quantify, mostly under pKd 3.1 to 4

Binder	pKd
RRISSLESEV [GRIN2C, Q14957]	below the threshold
YNNCLEILRV [DCAF7, P61962]	3.55

These binders were tested against T4, MPP2, Q14168 (assay: holdup assay). Conditions: plain residues with an end cap or a label only (N-terminal biotin on a linker: ado-ado).
Parameters: key: below the threshold = too weak to quantify, mostly under pKd 3.1 to 4

Binder	pKd
RRISSLESEV [GRIN2C, Q14957]	below the threshold
YNNCLEILRV [DCAF7, P61962]	below the threshold

The binders below were run against T5, APBA2_1, Q99767 (assay: holdup assay). Conditions: plain residues with an end cap or a label only (N-terminal biotin on a linker: ado-ado).
Parameters: key: below the threshold = too weak to quantify, mostly under pKd 3.1 to 4

Binder	pKd
RRISSLESEV [GRIN2C, Q14957]	below the threshold
YNNCLEILRV [DCAF7, P61962]	below the threshold

The binders below were run against T6, LNX2_2, Q8N448 (assay: holdup assay). Conditions: plain residues with an end cap or a label only (N-terminal biotin on a linker: ado-ado).
Parameters: key: below the threshold = too weak to quantify, mostly under pKd 3.1 to 4

Binder	pKd
RRISSLESEV [GRIN2C, Q14957]	below the threshold
YNNCLEILRV [DCAF7, P61962]	4.91

These binders were tested against LIMK2, P53671 (assay: holdup assay). Conditions: plain residues with an end cap or a label only (N-terminal biotin on a linker: ado-ado).
Parameters: key: below the threshold = too weak to quantify, mostly under pKd 3.1 to 4

Chain of LIMK2, P53671 (P53671 143-248): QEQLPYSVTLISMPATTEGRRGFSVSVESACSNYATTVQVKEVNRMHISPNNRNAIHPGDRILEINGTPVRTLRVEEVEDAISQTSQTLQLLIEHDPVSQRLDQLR

Binder	pKd
RRISSLESEV [GRIN2C, Q14957]	below the threshold
YNNCLEILRV [DCAF7, P61962]	below the threshold

Each binder was assayed against TJP1_2, Q07157 (assay: holdup assay). Conditions: plain residues with an end cap or a label only (N-terminal biotin on a linker: ado-ado).
Parameters: key: below the threshold = too weak to quantify, mostly under pKd 3.1 to 4

Chain of TJP1_2, Q07157 (Q07157 181-274): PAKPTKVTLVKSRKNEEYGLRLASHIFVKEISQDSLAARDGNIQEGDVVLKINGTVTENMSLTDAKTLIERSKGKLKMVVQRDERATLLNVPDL

Binder	pKd
RRISSLESEV [GRIN2C, Q14957]	below the threshold
YNNCLEILRV [DCAF7, P61962]	4.25

What follows are binders tested against T7, ARHGEF11, O15085 (assay: holdup assay). Conditions: plain residues with an end cap or a label only (N-terminal biotin on a linker: ado-ado).
Parameters: key: below the threshold = too weak to quantify, mostly under pKd 3.1 to 4

Binder	pKd
RRISSLESEV [GRIN2C, Q14957]	3.98
YNNCLEILRV [DCAF7, P61962]	3.78

Each binder was assayed against T8, SNTG1, Q9NSN8 (assay: holdup assay). Conditions: plain residues with an end cap or a label only (N-terminal biotin on a linker: ado-ado).
Parameters: key: below the threshold = too weak to quantify, mostly under pKd 3.1 to 4

Binder	pKd
RRISSLESEV [GRIN2C, Q14957]	5.11
YNNCLEILRV [DCAF7, P61962]	below the threshold

What follows are binders tested against HTRA2, O43464 (assay: holdup assay). Conditions: plain residues with an end cap or a label only (N-terminal biotin on a linker: ado-ado).
Parameters: key: below the threshold = too weak to quantify, mostly under pKd 3.1 to 4

Chain of HTRA2, O43464 (O43464 355-458): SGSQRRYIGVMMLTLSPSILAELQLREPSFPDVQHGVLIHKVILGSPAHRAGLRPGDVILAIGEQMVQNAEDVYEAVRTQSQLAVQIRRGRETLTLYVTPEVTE

Binder	pKd
RRISSLESEV [GRIN2C, Q14957]	below the threshold
YNNCLEILRV [DCAF7, P61962]	4.66

Each binder was assayed against MAST2, Q6P0Q8 (assay: holdup assay). Conditions: plain residues with an end cap or a label only (N-terminal biotin on a linker: ado-ado).
Parameters: key: below the threshold = too weak to quantify, mostly under pKd 3.1 to 4

Chain of MAST2, Q6P0Q8 (Q6P0Q8 1099-1202): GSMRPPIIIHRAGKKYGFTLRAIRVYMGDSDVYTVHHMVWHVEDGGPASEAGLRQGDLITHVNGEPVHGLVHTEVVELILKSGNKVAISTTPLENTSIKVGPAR

Binder	pKd
RRISSLESEV [GRIN2C, Q14957]	5.07
YNNCLEILRV [DCAF7, P61962]	4.53

These binders were tested against SCRIB_1, Q14160 (assay: holdup assay). Conditions: plain residues with an end cap or a label only (N-terminal biotin on a linker: ado-ado).
Parameters: key: below the threshold = too weak to quantify, mostly under pKd 3.1 to 4

Chain of SCRIB_1, Q14160 (Q14160 718-814): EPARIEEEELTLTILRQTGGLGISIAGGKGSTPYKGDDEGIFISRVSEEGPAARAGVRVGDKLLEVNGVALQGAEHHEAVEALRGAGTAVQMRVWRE

Binder	pKd
RRISSLESEV [GRIN2C, Q14957]	4.69
YNNCLEILRV [DCAF7, P61962]	below the threshold

Each binder was assayed against T9, TIAM2, Q8IVF5 (assay: holdup assay). Conditions: plain residues with an end cap or a label only (N-terminal biotin on a linker: ado-ado).
Parameters: key: below the threshold = too weak to quantify, mostly under pKd 3.1 to 4

Binder	pKd
RRISSLESEV [GRIN2C, Q14957]	4.13
YNNCLEILRV [DCAF7, P61962]	4.04

These binders were tested against T10, HTRA4, P83105 (assay: holdup assay). Conditions: plain residues with an end cap or a label only (N-terminal biotin on a linker: ado-ado).
Parameters: key: below the threshold = too weak to quantify, mostly under pKd 3.1 to 4

Binder	pKd
RRISSLESEV [GRIN2C, Q14957]	below the threshold
YNNCLEILRV [DCAF7, P61962]	4.68

Each binder was assayed against T11, NHERF3_3, Q5T2W1 (assay: holdup assay). Conditions: plain residues with an end cap or a label only (N-terminal biotin on a linker: ado-ado).
Parameters: key: below the threshold = too weak to quantify, mostly under pKd 3.1 to 4

Binder	pKd
RRISSLESEV [GRIN2C, Q14957]	below the threshold
YNNCLEILRV [DCAF7, P61962]	below the threshold

Each binder was assayed against Inadl_3, Q8NI35 (assay: holdup assay). Conditions: plain residues with an end cap or a label only (N-terminal biotin on a linker: ado-ado).
Parameters: key: below the threshold = too weak to quantify, mostly under pKd 3.1 to 4

Chain of Inadl_3, Q8NI35 (Q8NI35 359-469): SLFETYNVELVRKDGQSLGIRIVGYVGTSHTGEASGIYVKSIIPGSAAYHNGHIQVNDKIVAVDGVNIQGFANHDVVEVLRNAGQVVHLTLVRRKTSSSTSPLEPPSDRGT

Binder	pKd
RRISSLESEV [GRIN2C, Q14957]	3.68
YNNCLEILRV [DCAF7, P61962]	below the threshold

Each binder was assayed against DLG5_1, Q8TDM6 (assay: holdup assay). Conditions: plain residues with an end cap or a label only (N-terminal biotin on a linker: ado-ado).
Parameters: key: below the threshold = too weak to quantify, mostly under pKd 3.1 to 4

Chain of DLG5_1, Q8TDM6 (Q8TDM6 617-713): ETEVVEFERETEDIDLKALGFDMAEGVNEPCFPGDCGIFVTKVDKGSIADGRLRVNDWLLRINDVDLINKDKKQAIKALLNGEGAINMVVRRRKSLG

Binder	pKd
RRISSLESEV [GRIN2C, Q14957]	below the threshold
YNNCLEILRV [DCAF7, P61962]	below the threshold

Each binder was assayed against GRIP2_3, Q9C0E4 (assay: holdup assay). Conditions: plain residues with an end cap or a label only (N-terminal biotin on a linker: ado-ado).
Parameters: key: below the threshold = too weak to quantify, mostly under pKd 3.1 to 4

Chain of GRIP2_3, Q9C0E4 (Q9C0E4 238-339): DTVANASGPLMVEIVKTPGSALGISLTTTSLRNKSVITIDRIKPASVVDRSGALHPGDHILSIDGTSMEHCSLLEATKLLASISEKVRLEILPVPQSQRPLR

Binder	pKd
RRISSLESEV [GRIN2C, Q14957]	below the threshold
YNNCLEILRV [DCAF7, P61962]	below the threshold

These binders were tested against GOPC, Q9HD26 (assay: holdup assay). Conditions: plain residues with an end cap or a label only (N-terminal biotin on a linker: ado-ado).
Parameters: key: below the threshold = too weak to quantify, mostly under pKd 3.1 to 4

Binder	pKd
RRISSLESEV [GRIN2C, Q14957]	below the threshold
YNNCLEILRV [DCAF7, P61962]	below the threshold

What follows are binders tested against T12, APBA1_2, Q02410 (assay: holdup assay). Conditions: plain residues with an end cap or a label only (N-terminal biotin on a linker: ado-ado).
Parameters: key: below the threshold = too weak to quantify, mostly under pKd 3.1 to 4

Binder	pKd
RRISSLESEV [GRIN2C, Q14957]	3.75
YNNCLEILRV [DCAF7, P61962]	below the threshold

The binders below were run against T13, MPDZ_12, O75970 (assay: holdup assay). Conditions: plain residues with an end cap or a label only (N-terminal biotin on a linker: ado-ado).
Parameters: key: below the threshold = too weak to quantify, mostly under pKd 3.1 to 4

Binder	pKd
RRISSLESEV [GRIN2C, Q14957]	below the threshold
YNNCLEILRV [DCAF7, P61962]	below the threshold

The binders below were run against T14, PDZD7_3, Q9H5P4 (assay: holdup assay). Conditions: plain residues with an end cap or a label only (N-terminal biotin on a linker: ado-ado).
Parameters: key: below the threshold = too weak to quantify, mostly under pKd 3.1 to 4

Binder	pKd
RRISSLESEV [GRIN2C, Q14957]	4.32
YNNCLEILRV [DCAF7, P61962]	below the threshold

Each binder was assayed against ARHGEF12, Q9NZN5-2 (assay: holdup assay). Conditions: plain residues with an end cap or a label only (N-terminal biotin on a linker: ado-ado).
Parameters: key: below the threshold = too weak to quantify, mostly under pKd 3.1 to 4

Chain of ARHGEF12, Q9NZN5-2 (Q9NZN5 other isoform, or with tags, fused parts or gaps): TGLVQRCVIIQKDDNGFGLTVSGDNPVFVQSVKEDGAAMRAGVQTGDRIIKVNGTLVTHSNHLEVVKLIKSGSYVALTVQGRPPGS

Binder	pKd
RRISSLESEV [GRIN2C, Q14957]	4.31
YNNCLEILRV [DCAF7, P61962]	below the threshold
